The text below walks through data of US20150017095A1 (AbbVie / Abbott, published 2015).

A word on the EC50: it is the concentration that produces a half-maximal response. What is called Kd is the concentration at which binding is half-saturated. As usually defined, the koff is the first-order rate constant of dissociation. As usually defined, the kon is the rate constant with which the complex forms.

Assay [1] addresses T1, Recombinant Human IL-17 (human, UniProt Q16552 20-155, limits assumed).
T1 construct: also called IL-17A
Nature of the assay: direct bind ELISA, antigen coated on plate (N-terminal VD). How it is done: (§1) Enzyme Linked Immunosorbent Assays to screen for antibodies that bind a desired target antigen were performed as follows. High bind ELISA plates (Corning Costar #3369, Acton, Mass.) were coated with 100 μL/well of 10 μg/ml of desired target antigen (R&D Systems, Minneapolis, Minn.) or desired target antigen extra-cellular domain/FC fusion protein (R&D Systems, Minneapolis, Minn.) or monoclonal mouse anti-polyHistidine antibody (R&D Systems # MAB050, Minneapolis, Minn.) in phosphate buffered saline (10×PBS, Abbott Bioresearch Center, Media Prep# MPS-073, Worcester, Mass.) overnight at 4° C. Plates were washed four times with PBS containing 0.02% Tween 20. Plates were blocked by the addition of 300 μL/well blocking solution (non-fat dry milk powder, various retail suppliers, diluted to 2% in PBS) for ½ hour at room temperature. Plates were washed four times after blocking with PBS containing 0.02% Tween 20.
(§2) Plates were washed 4 times with PBS containing 0.02% Tween 20.
(§3) One hundred microliters of enhanced TMB solution (Neogen Corp. #308177, K Blue, Lexington, Ky.) was added to each well and incubated for 10 minutes at room temperature. The reaction was stopped by the addition of 50 μL 1N sulphuric acid.
For orientation: An ELISA detects its analyte on a solid surface through an enzyme-linked reagent.

Assay [2] concerns the target T1, Recombinant Human IL-17. The experiment in a line: BIACORE SPR, DVD-Ig captured, antigen in flow (N-terminal VD). How it is done: (§4) The BIACORE assay (Biacore, Inc, Piscataway, N.J.) determines the affinity of antibodies or DVD-Ig with kinetic measurements of on-rate and off-rate constants. […] All chemicals are obtained from Biacore® AB (Uppsala, Sweden) or otherwise from a different source as described in the text. For example, approximately 5000 RU of goat anti-mouse IgG, (Fcγ), fragment specific polyclonal antibody (Pierce Biotechnology Inc, Rockford, Ill.) diluted in 10 mM sodium acetate (pH 4.5) is directly immobilized across a CM5 research grade biosensor chip using a standard amine coupling kit according to manufacturer's instructions and procedures at 25 μg/ml. Unreacted moieties on the biosensor surface are blocked with ethanolamine. Modified carboxymethyl dextran surface in flowcell 2 and 4 is used as a reaction surface. Unmodified carboxymethyl dextran without goat anti-mouse IgG in flow cell 1 and 3 is used as the reference surface. For kinetic analysis, rate equations derived from the 1:1 Langmuir binding model are fitted simultaneously to association and dissociation phases of all eight injections (using global fit analysis) with the use of Biaevaluation 4.0.1 software. Purified antibodies or DVD-Ig are diluted in HEPES-buffered saline for capture across goat anti-mouse IgG specific reaction surfaces. Antibodies or DVD-Ig to be captured as a ligand (25 μg/m) are injected over reaction matrices at a flow rate of 5 μl/min. The association and dissociation rate constants, kₒₙ (M⁻¹s⁻¹) and koff (s⁻¹) are determined under a continuous flow rate of 25 μl/min. Rate constants are derived by making kinetic binding measurements at different antigen concentrations ranging from 10-200 nM. The equilibrium dissociation constant (M) of the reaction between antibodies or DVD-Igs and the target antigen is then calculated from the kinetic rate constants by the following formula: KD=koff/kₒₙ. Binding is recorded as a function of time and kinetic rate constants are calculated.
On the technique in general: SPR reads the build-up and loss of mass on a sensor chip optically.

The target of assay [3] is T1, Recombinant Human IL-17. Nature of the assay: cell-based or functional assay.
Assay [4] concerns the target T2, Recombinant Human IL-6 sR (human, UniProt P08887 20-358).
T2 construct: domain: IL-6 sR; Bought reagent; also called IL-6R
T2 sequence (looked up): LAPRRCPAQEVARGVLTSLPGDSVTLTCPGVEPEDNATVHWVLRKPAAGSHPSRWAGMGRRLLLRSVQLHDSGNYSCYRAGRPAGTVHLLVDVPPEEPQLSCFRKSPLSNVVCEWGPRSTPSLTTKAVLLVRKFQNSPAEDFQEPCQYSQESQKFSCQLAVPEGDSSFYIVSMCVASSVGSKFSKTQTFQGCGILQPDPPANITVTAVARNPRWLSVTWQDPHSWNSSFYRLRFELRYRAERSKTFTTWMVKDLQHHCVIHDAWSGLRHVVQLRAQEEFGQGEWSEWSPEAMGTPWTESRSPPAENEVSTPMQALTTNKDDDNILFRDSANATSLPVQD
Nature of the assay: direct bind ELISA, antigen coated on plate (N-terminal VD). How it is done: as §1, §2, §3

Assay [5] has as its target T2, Recombinant Human IL-6 sR. Nature of the assay: BIACORE SPR, DVD-Ig captured, antigen in flow (N-terminal VD). Here is the method:
as §4

Assay [6] addresses T3, Recombinant Human IL-1β (human, UniProt P01584 117-269). The experiment in a line: cell-based or functional assay.
Assay [7] deals with T3, Recombinant Human IL-1β. The experiment in a line: direct bind ELISA, antigen coated on plate (C-terminal VD). Here is the method:
as §1, §2, §3

Assay [8] deals with T1, Recombinant Human IL-17. The description is as above. How it is done:
as §1, §2, §3

The target of assay [9] is T1, Recombinant Human IL-17. The experiment in a line: BIACORE SPR, DVD-Ig captured, antigen in flow (C-terminal VD). How it is done:
as §4

Assay [10] addresses T3, Recombinant Human IL-1β. Nature of the assay: direct bind ELISA, antigen coated on plate (N-terminal VD). Here is the method: as §1, §2, §3
Assay [11] deals with T3, Recombinant Human IL-1β. Nature of the assay: BIACORE SPR, DVD-Ig captured, antigen in flow (N-terminal VD). Here is the method:
as §4

Assay [12] has as its target T4, Recombinant Human VEGF (human, UniProt P15692-4 27-191).
T4 construct: also called VEGF165
Nature of the assay: direct bind ELISA, antigen coated on plate (C-terminal VD). Here is the method:
as §1, §2, §3

Assay [13] deals with T4, Recombinant Human VEGF. Nature of the assay: BIACORE SPR, DVD-Ig captured, antigen in flow (C-terminal VD). How it is done: as §4

T1 sequence (Q16552 20-155 limits assumed): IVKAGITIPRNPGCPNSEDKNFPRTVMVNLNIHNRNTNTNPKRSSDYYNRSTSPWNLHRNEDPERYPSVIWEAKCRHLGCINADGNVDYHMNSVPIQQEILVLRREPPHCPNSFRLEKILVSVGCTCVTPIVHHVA
T4 sequence (P15692 other isoform, or with tags, fused parts or gaps limits assumed): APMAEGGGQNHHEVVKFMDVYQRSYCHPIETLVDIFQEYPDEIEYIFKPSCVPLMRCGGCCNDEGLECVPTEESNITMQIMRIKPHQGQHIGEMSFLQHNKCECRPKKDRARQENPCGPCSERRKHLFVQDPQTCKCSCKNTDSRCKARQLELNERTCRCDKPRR

B1: DVD156 (IL-17A / PGE2 DVD-Ig) (bispecific antibody)
VH: EVQLVESGGGLVQPGGSLRLSCAASGFTFSNYWMNWVRQAPGKGLEWVAAINQDGSEKYYVGSVKGRFTISRDNAKNSLYLQMNSLRVEDTAVYYCVRDYYDILTDYYIHYWYFDLWGRGTLVTVSSASTKGPEVQLVQSGAEVKKPGASVKVSCKASGYTFTKYWLGWVRQAPGQGLEWMGDIYPGYDYTHYNEKFKDRVTLTTDTSTSTAYMELRSLRSDDTAVYYCARSDGSSTYWGQGTLVTVSS
VL: not shown
notes: Outer domain is AB029 (IL-17A), inner domain is AB048 (PGE2); also called VD156H; VD156L
In the case of B1, the EC50 in [1] was found to be 0.62 nM. Further, in [2], the Kd is no more than 0.0115 nM, the koff is less than 1e-06 s⁻¹ and the association rate constant (kon) was 86800 M⁻¹ s⁻¹. Besides, the “N-terminal VD IL-17 Neutralization Assay EC50 nM (IL-6 secretion by HS27 cells)” value in assay [3] was found to be 0.2 nM.

B2: DVD152 (IL-6R / PGE2 DVD-Ig) (bispecific antibody)
VH: EVQLQESGPGLVRPSQTLSLTCTVSGYSITSDHAWSWVRQPPGRGLEWIGYISYSGITTYNPSLKSRVTMLRDTSKNQFSLRLSSVTAADTAVYYCARSLARTTAMDYWGQGSLVTVSSASTKGPEVQLVQSGAEVKKPGASVKVSCKASGYTFTKYWLGWVRQAPGQGLEWMGDIYPGYDYTHYNEKFKDRVTLTTDTSTSTAYMELRSLRSDDTAVYYCARSDGSSTYWGQGTLVTVSS
VL: DIQMTQSPSSLSASVGDRVTITCRASQDISSYLNWYQQKPGKAPKLLIYYTSRLHSGVPSRFSGSGSGTDFTFTISSLQPEDIATYYCQQGNTLPYTFGQGTKVEIKRTVAAPDVLMTQTPLSLPVTPGEPASISCTSSQNIVHSNGNTYLEWYLQKPGQSPQLLIYKVSNRFSGVPDRFSGSGSGTDFTLKISRVEAEDVGVYYCFQVSHVPYTFGGGTKVEIKR
notes: Outer domain is AB054 (IL-6R), inner domain is AB048 (PGE2); also called VD152H; VD152L
Turning to B2, the EC50 in [4] amounted to 1.62 nM. Also, in assay [5], the Kd was found to be 0.275 nM, the koff amounted to 0.000115 s⁻¹ and the on-rate (kon) stood at 420000 M⁻¹ s⁻¹.

B3: DVD157 (PGE2 / IL-1b DVD-Ig) (bispecific antibody)
VH: EVQLVQSGAEVKKPGASVKVSCKASGYTFTKYWLGWVRQAPGQGLEWMGDIYPGYDYTHYNEKFKDRVTLTTDTSTSTAYMELRSLRSDDTAVYYCARSDGSSTYWGQGTLVTVSSASTKGPQVQLVESGGGVVQPGRSLRLSCAASGFTFSVYGMNWVRQAPGKGLEWVAIIWYDGDNQYYADSVKGRFTISRDNSKNTLYLQMNGLRAEDTAVYYCARDLRTGPFDYWGQGTLVTVSS
VL: DVLMTQTPLSLPVTPGEPASISCTSSQNIVHSNGNTYLEWYLQKPGQSPQLLIYKVSNRFSGVPDRFSGSGSGTDFTLKISRVEAEDVGVYYCFQVSHVPYTFGGGTKVEIKRTVAAPEIVLTQSPDFQSVTPKEKVTITCRASQSIGSSLHWYQQKPDQSPKLLIKYASQSFSGVPSRFSGSGSGTDFTLTINSLEAEDAAAYYCHQSSSLPFTFGPGTKVDIKR
notes: Outer domain is AB048 (PGE2), inner domain is AB032 (IL-1b); also called VD157H; VD157L
Regarding B3, the “C-terminal VD IL-1β Neutralization Assay EC50 nM (IL-8 release by MRC5 cells)” value in assay [6] worked out at 3.22 nM. For the same molecule, the EC50 in assay [7] came out at 2480 nM.

B4: DVD155 (PGE2 / IL-17A DVD-Ig) (bispecific antibody)
VH: EVQLVQSGAEVKKPGASVKVSCKASGYTFTKYWLGWVRQAPGQGLEWMGDIYPGYDYTHYNEKFKDRVTLTTDTSTSTAYMELRSLRSDDTAVYYCARSDGSSTYWGQGTLVTVSSASTKGPEVQLVESGGGLVQPGGSLRLSCAASGFTFSNYWMNWVRQAPGKGLEWVAAINQDGSEKYYVGSVKGRFTISRDNAKNSLYLQMNSLRVEDTAVYYCVRDYYDILTDYYIHYWYFDLWGRGTLVTVSS
VL: not shown
notes: Outer domain is AB048 (PGE2), inner domain is AB029 (IL-17A); also called VD155H; VD155L
Consider B4, for which the “C-terminal VD IL-17 Neutralization Assay EC50 nM (IL-6 secretion by HS27 cells)” value in assay [3] was found to be 5.7e-05 nM. Moreover, the EC50 in [8] was 248 nM. In [9], the Kd is 3.37 nM, the koff stood at 0.000125 s⁻¹ and the kon amounted to 37000 M⁻¹ s⁻¹.

B5: DVD158 (IL-1b / PGE2 DVD-Ig) (bispecific antibody)
VH: QVQLVESGGGVVQPGRSLRLSCAASGFTFSVYGMNWVRQAPGKGLEWVAIIWYDGDNQYYADSVKGRFTISRDNSKNTLYLQMNGLRAEDTAVYYCARDLRTGPFDYWGQGTLVTVSSASTKGPEVQLVQSGAEVKKPGASVKVSCKASGYTFTKYWLGWVRQAPGQGLEWMGDIYPGYDYTHYNEKFKDRVTLTTDTSTSTAYMELRSLRSDDTAVYYCARSDGSSTYWGQGTLVTVSS
VL: EIVLTQSPDFQSVTPKEKVTITCRASQSIGSSLHWYQQKPDQSPKLLIKYASQSFSGVPSRFSGSGSGTDFTLTINSLEAEDAAAYYCHQSSSLPFTFGPGTKVDIKRTVAAPDVLMTQTPLSLPVTPGEPASISCTSSQNIVHSNGNTYLEWYLQKPGQSPQLLIYKVSNRFSGVPDRFSGSGSGTDFTLKISRVEAEDVGVYYCFQVSHVPYTFGGGTKVEIKR
notes: Outer domain is AB032 (IL-1b), inner domain is AB048 (PGE2); also called VD158H; VD158L
In the case of B5, the half-maximal effective concentration (EC50) in assay [10] came out at 17.6 nM. Further, in assay [11], the Kd worked out at 0.0387 nM, the koff turned out to be 3.84e-05 s⁻¹ and the association rate constant (kon) came out at 992000 M⁻¹ s⁻¹. In addition, the “N-terminal VD IL-1β Neutralization Assay EC50 nM (IL-8 release by MRC5 cells)” value in assay [6] stood at 0.11 nM.

B6: DVD161 (PGE2 / VEGF DVD-Ig) (bispecific antibody)
VH: EVQLVQSGAEVKKPGASVKVSCKASGYTFTKYWLGWVRQAPGQGLEWMGDIYPGYDYTHYNEKFKDRVTLTTDTSTSTAYMELRSLRSDDTAVYYCARSDGSSTYWGQGTLVTVSSASTKGPEVQLVESGGGLVQPGGSLRLSCAASGYTFTNYGMNWVRQAPGKGLEWVGWINTYTGEPTYAADFKRRFTFSLDTSKSTAYLQMNSLRAEDTAVYYCAKYPHYYGSSHWYFDVWGQGTLVTVSS
VL: DVLMTQTPLSLPVTPGEPASISCTSSQNIVHSNGNTYLEWYLQKPGQSPQLLIYKVSNRFSGVPDRFSGSGSGTDFTLKISRVEAEDVGVYYCFQVSHVPYTFGGGTKVEIKRTVAAPDIQMTQSPSSLSASVGDRVTITCSASQDISNYLNWYQQKPGKAPKVLIYFTSSLHSGVPSRFSGSGSGTDFTLTISSLQPEDFATYYCQQYSTVPWTFGQGTKVEIKR
notes: Outer domain is AB048 (PGE2), inner domain is AB014 (VEGF); also called VD161H; VD161L
For the molecule B6, the EC50 in assay [12] came out at 391 nM. In [13], the equilibrium dissociation constant (Kd) was found to be 0.755 nM, the koff worked out at 0.000209 s⁻¹ and the kon was 277000 M⁻¹ s⁻¹.
